Experimental data published in patent US8586570B2, “Sox-based kinase sensor” (Massachusetts Institute of Technology, priority 2006, dated 2013).

Molecular target: PKCα (Homo sapiens, UniProt P17252)
Assay: Kinetic parameters of the peptides with PKCα (continuous fluorescence assay)
Assay type: biochemical
Excerpt: To solve for enzyme kinetic parameters for this reaction, determination of the initial rate of product formation from the increase in fluorescence intensity is necessary. With this sensor, a correction for the decrease in fluorescence intensity due to the starting material being consumed is needed to determine the rate of product formation from the initial slope. The fluorescence intensity at any given point can be determined from the following equation: I(t)=fSs(t)+fPP(t) (1) where I(t) is the fluorescence intensity, S(t) is the amount of substrate in μM, P(t) is the amount of product in μM, fS is the fluorescence intensity per μM of substrate, and fP is fluorescence intensity per μM of product. The amount of substrate and product at any given point are related by: S(t)+P(t)=S0 (2) where S0 is the initial amount of substrate. Substitution of (2) into (1) followed by rearrangement, yields:
[formula] The initial slope of the reaction, dI(t)/dt, was measured within the first 5% of substrate turnover. The constants fP and fS were calculated from the slope of a line of fluorescence intensity versus concentration of P and S, respectively. A linear fit of a Hanes plot ([S]/V vs. […]) was used to find Km and Vmax.
For in vitro applications, the concentration of kinase can range from about 0.5 nM to about 1 μM, typically not more than about 500 nM, and preferably not more than about 250 nM. The concentrations of sensor can vary, but usually ranges between about 0.01 μM to 0.1 mM. Adenosine 5′-triphosphate (ATP) is the preferred source of phosphate, in stock solutions of about 10-100 mM. Because most kinases have Km values for ATP in the range of about 10-150 μM, saturating concentrations of ATP are used to arrive at values of Km and Vmax for the substrates. For in vivo applications, when the sensor is internalized into a cell, sufficient kinases, Mg^2+ and phosphate sources exist in the cytosol. For in vivo sensing, a cellular internalization sequence can be included in the sensor design. Suitable cellular internalization sequences include Penetratins, HIV-Tat domains and poly-arginine sequences (Lindgren, M. et al. Trends Pharmacol. Sci. 2000, 21, 99-103; Wadia, J. S. et al. Curr Opin. Biotech. 2002, 13, 52-56; Carrigan, C. N. Analyt. Biochem. 2005, 341, 290-298).
For applications in which the kinase is dependent on cofactors, a source of cofactor is also included in the sample. For example, for PKC, sources of Ca^2+, phospholipid and diacylglycerol are needed.
Fluorescence experiments were performed on a Fluoromax 3 from Jobin Yvon. 5 nm emission and excitation slit widths were used. For all experiments, an excitation wavelength of 360 nm was used. Enzyme assays were performed by monitoring emission at 485 nm.

- selectivity for PKCα (as determined by kinetic parameters, compared with PKCα-S1): much more selective for PKCα
- Km (with PKCα): 0.12 ± 0.018 µM
- Vmax (with PKCα): 2.2 ± 0.25 µmol/min/mg
Substance: Ac-RRR-C(Sox)-ASFRRKA-CONH2 [PKCα-S10(P10), Sox chemosensor with extended recognition domain for PKCα]
